Data from US9708375 (Amgen, dated 2017).

T1: biotin labeled human recombinant Sclerostin (human, UniProt Q9BQB4 24-213)
T1 construct: also called human Sclerostin; huSOST
T1 sequence (looked up): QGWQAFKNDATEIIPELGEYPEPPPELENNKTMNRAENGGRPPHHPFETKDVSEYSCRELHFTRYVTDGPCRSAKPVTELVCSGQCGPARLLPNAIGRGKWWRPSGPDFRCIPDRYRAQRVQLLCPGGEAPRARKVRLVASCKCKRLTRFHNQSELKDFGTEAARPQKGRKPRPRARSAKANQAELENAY


Molecular target: T1, biotin labeled human recombinant …
Assay: AlphaScreen Sclerostin/LRP-6 inhibition

| Binder | binding result |
| --- | --- |
| P7068 (bispecific antibody, human IgG2, lambda, also called P7011; Ab-Avimer-1 (P7068A)) heavy: SGGSCPAYTEFLCKDSDRCFPSEWRCDGEMDCVDGSDELHCAYHTCAPNQFRCNSYDKCVPAHWVCDGVLDCLDSSDETNCSAPASEPPGSLSQVQLVESGGGVVQPGRSLRLSCAASGFTFSRYDMHWVRQAPGKGLEWVAIIFYDGSNKYYADPVKGRFTISRDNSKNTLYLQMNSLRAEDTAVYYCATLAAAFDYWGQGTLVTVSSASTKGPSVFPLAPCSRSTSESTAALGCLVKDYFPEPVTVSWNSGALTSGVHTFPAVLQSSGLYSLSSVVTVPSSNFGTQTYTCNVDHKPSNTKVDKTVERKCCVECPPCPAPPVAGPSVFLFPPKPKDTLMISRTPEVTCVVVDVSHEDPEVQFNWYVDGVEVHNAKTKPREEQFNSTFRVVSVLTVVHQDWLNGKEYKCKVSNKGLPAPIEKTISKTKGQPREPQVYTLPPSREEMTKNQVSLTCLVKGFYPSDIAVEWESNGQPENNYKTTPPMLDSDGSFFLYSKLTVDKSRWQQGNVFSCSVMHEALHNHYTQKSLSLSPGK light: YVLTQPPSVSVAPGQTARITCGGNNIGSKSVHWYQQKPGQAPVLVVYDDSDRPSEIPERFSGSNSGNTATLTISRVEAGDEADYYCQVWDSSSDHVVFGGGTRLTVLGQPKAAPSVTLFPPSSEELQANKATLVCLISDFYPGAVTVAWKADSSPVKAGVETTTPSKQSNNKYAASSYLSLTPEQWKSHRSYSCQVTHEGSTVEKTVAPTECS | binds |
| P7079 (bispecific antibody, human IgG2, lambda, also called P6887; Ab-Avimer-6 (P7079A)) heavy: QVQLVESGGGVVQPGRSLRLSCAASGFTFSRYDMHWVRQAPGKGLEWVAIIFYDGSNKYYADPVKGRFTISRDNSKNTLYLQMNSLRAEDTAVYYCATLAAAFDYWGQGTLVTVSSASTKGPSVFPLAPCSRSTSESTAALGCLVKDYFPEPVTVSWNSGALTSGVHTFPAVLQSSGLYSLSSVVTVPSSNFGTQTYTCNVDHKPSNTKVDKTVERKCCVECPPCPAPPVAGPSVFLFPPKPKDTLMISRTPEVTCVVVDVSHEDPEVQFNWYVDGVEVHNAKTKPREEQFNSTFRVVSVLTVVHQDWLNGKEYKCKVSNKGLPAPIEKTISKTKGQPREPQVYTLPPSREEMTKNQVSLTCLVKGFYPSDIAVEWESNGQPENNYKTTPPMLDSDGSFFLYSKLTVDKSRWQQGNVFSCSVMHEALHNHYTQKSLSLSPGKSSGGSCAPNQFRCNSYDKCVPAHWVCDGVLDCLDSSDETNCSAPASEPPGSLCPAYTEFLCKDSDRCFPSEWRCDGEMDCVDGSDELHCAYHTSLQ light: YVLTQPPSVSVAPGQTARITCGGNNIGSKSVHWYQQKPGQAPVLVVYDDSDRPSEIPERFSGSNSGNTATLTISRVEAGDEADYYCQVWDSSSDHVVFGGGTRLTVLGQPKAAPSVTLFPPSSEELQANKATLVCLISDFYPGAVTVAWKADSSPVKAGVETTTPSKQSNNKYAASSYLSLTPEQWKSHRSYSCQVTHEGSTVEKTVAPTECS | binds |
| P7651 (bispecific antibody, human IgG2, lambda, also called C140161) heavy: QVQLVESGGGVVQPGRSLRLSCAASGFTFSRYDMHWVRQAPGKGLEWVAIIFYDGSNKYYADPVKGRFTISRDNSKNTLYLQMNSLRAEDTAVYYCATLAAAFDYWGQGTLVTVSSASTKGPSVFPLAPCSRSTSESTAALGCLVKDYFPEPVTVSWNSGALTSGVHTFPAVLQSSGLYSLSSVVTVPSSNFGTQTYTCNVDHKPSNTKVDKTVERKCCVECPPCPAPPVAGPSVFLFPPKPKDTLMISRTPEVTCVVVDVSHEDPEVQFNWYVDGVEVHNAKTKPREEQFNSTFRVVSVLTVVHQDWLNGKEYKCKVSNKGLPAPIEKTISKTKGQPREPQVYTLPPSREEMTKNQVSLTCLVKGFYPSDIAVEWESNGQPENNYKTTPPMLDSDGSFFLYSKLTVDKSRWQQGNVFSCSVMHEALHNHYTQKSLSLSPGKSSGGSCAPNQFRCNSYDKCVPAHWVCDGVLDCLDSSDETNCSAPASEPPGSLCPAYTEFLCADSDRCFPSEWRCDGEMDCVDGSDELHCAYHTSLQ light: YVLTQPPSVSVAPGQTARITCGGNNIGSKSVHWYQQKPGQAPVLVVYDDSDRPSEIPERFSGSNSGNTATLTISRVEAGDEADYYCQVWDSSSDHVVFGGGTRLTVLGQPKAAPSVTLFPPSSEELQANKATLVCLISDFYPGAVTVAWKADSSPVKAGVETTTPSKQSNNKYAASSYLSLTPEQWKSHRSYSCQVTHEGSTVEKTVAPTECS | binds |
| P7080 (bispecific antibody, human IgG2, lambda, also called P7009; Ab-Avimer-7 (P7080A)) light: YVLTQPPSVSVAPGQTARITCGGNNIGSKSVHWYQQKPGQAPVLVVYDDSDRPSEIPERFSGSNSGNTATLTISRVEAGDEADYYCQVWDSSSDHVVFGGGTRLTVLGQPKAAPSVTLFPPSSEELQANKATLVCLISDFYPGAVTVAWKADSSPVKAGVETTTPSKQSNNKYAASSYLSLTPEQWKSHRSYSCQVTHEGSTVEKTVAPTECSSSGGSCPAYTEFLCKDSDRCFPSEWRCDGEMDCVDGSDELHCAYHTCAPNQFRCNSYDKCVPAHWVCDGVLDCLDSSDETNCSAPASEPPGSLSLQ heavy: QVQLVESGGGVVQPGRSLRLSCAASGFTFSRYDMHWVRQAPGKGLEWVAIIFYDGSNKYYADPVKGRFTISRDNSKNTLYLQMNSLRAEDTAVYYCATLAAAFDYWGQGTLVTVSSASTKGPSVFPLAPCSRSTSESTAALGCLVKDYFPEPVTVSWNSGALTSGVHTFPAVLQSSGLYSLSSVVTVPSSNFGTQTYTCNVDHKPSNTKVDKTVERKCCVECPPCPAPPVAGPSVFLFPPKPKDTLMISRTPEVTCVVVDVSHEDPEVQFNWYVDGVEVHNAKTKPREEQFNSTFRVVSVLTVVHQDWLNGKEYKCKVSNKGLPAPIEKTISKTKGQPREPQVYTLPPSREEMTKNQVSLTCLVKGFYPSDIAVEWESNGQPENNYKTTPPMLDSDGSFFLYSKLTVDKSRWQQGNVFSCSVMHEALHNHYTQKSLSLSPGK | binds |

The next lines start with the values.

| binding result | Binder |
| --- | --- |
| binds | P7654 (bispecific antibody, human IgG2, lambda, also called C140164) heavy: QVQLVESGGGVVQPGRSLRLSCAASGFTFSRYDMHWVRQAPGKGLEWVAIIFYDGSNKYYADPVKGRFTISRDNSKNTLYLQMNSLRAEDTAVYYCATLAAAFDYWGQGTLVTVSSASTKGPSVFPLAPCSRSTSESTAALGCLVKDYFPEPVTVSWNSGALTSGVHTFPAVLQSSGLYSLSSVVTVPSSNFGTQTYTCNVDHKPSNTKVDKTVERKCCVECPPCPAPPVAGPSVFLFPPKPKDTLMISRTPEVTCVVVDVSHEDPEVQFNWYVDGVEVHNAKTKPREEQFNSTFRVVSVLTVVHQDWLNGKEYKCKVSNKGLPAPIEKTISKTKGQPREPQVYTLPPSREEMTKNQVSLTCLVKGFYPSDIAVEWESNGQPENNYKTTPPMLDSDGSFFLYSKLTVDKSRWQQGNVFSCSVMHEALHNHYTQKSLSLSPGKSSGGSCAPNQFACNSYDKCVPAHWVCDGVLDCLDSSDETNCSAPASEPPGSLCPAYTEFLCADSDACFPSEWACDGEMDCVDGSDELHCAYHTSLQ light: YVLTQPPSVSVAPGQTARITCGGNNIGSKSVHWYQQKPGQAPVLVVYDDSDRPSEIPERFSGSNSGNTATLTISRVEAGDEADYYCQVWDSSSDHVVFGGGTRLTVLGQPKAAPSVTLFPPSSEELQANKATLVCLISDFYPGAVTVAWKADSSPVKAGVETTTPSKQSNNKYAASSYLSLTPEQWKSHRSYSCQVTHEGSTVEKTVAPTECS |
| binds | P7653 (bispecific antibody, human IgG2, lambda, also called C140163) heavy: SGGSCPAYTEFLCADSDACFPSEWACDGEMDCVDGSDELHCAYHTCAPNQFACNSYDACVPAHWVCDGVLDCLDSSDETNCSAPASEPPGSLSQVQLVESGGGVVQPGRSLRLSCAASGFTFSRYDMHWVRQAPGKGLEWVAIIFYDGSNKYYADPVKGRFTISRDNSKNTLYLQMNSLRAEDTAVYYCATLAAAFDYWGQGTLVTVSSASTKGPSVFPLAPCSRSTSESTAALGCLVKDYFPEPVTVSWNSGALTSGVHTFPAVLQSSGLYSLSSVVTVPSSNFGTQTYTCNVDHKPSNTKVDKTVERKCCVECPPCPAPPVAGPSVFLFPPKPKDTLMISRTPEVTCVVVDVSHEDPEVQFNWYVDGVEVHNAKTKPREEQFNSTFRVVSVLTVVHQDWLNGKEYKCKVSNKGLPAPIEKTISKTKGQPREPQVYTLPPSREEMTKNQVSLTCLVKGFYPSDIAVEWESNGQPENNYKTTPPMLDSDGSFFLYSKLTVDKSRWQQGNVFSCSVMHEALHNHYTQKSLSLSPGK light: YVLTQPPSVSVAPGQTARITCGGNNIGSKSVHWYQQKPGQAPVLVVYDDSDRPSEIPERFSGSNSGNTATLTISRVEAGDEADYYCQVWDSSSDHVVFGGGTRLTVLGQPKAAPSVTLFPPSSEELQANKATLVCLISDFYPGAVTVAWKADSSPVKAGVETTTPSKQSNNKYAASSYLSLTPEQWKSHRSYSCQVTHEGSTVEKTVAPTECS |
| binds | P7077 (bispecific antibody, human IgG2, lambda, also called P6888; Ab-Avimer-4 (P7077A)) heavy: QVQLVESGGGVVQPGRSLRLSCAASGFTFSRYDMHWVRQAPGKGLEWVAIIFYDGSNKYYADPVKGRFTISRDNSKNTLYLQMNSLRAEDTAVYYCATLAAAFDYWGQGTLVTVSSASTKGPSVFPLAPCSRSTSESTAALGCLVKDYFPEPVTVSWNSGALTSGVHTFPAVLQSSGLYSLSSVVTVPSSNFGTQTYTCNVDHKPSNTKVDKTVERKCCVECPPCPAPPVAGPSVFLFPPKPKDTLMISRTPEVTCVVVDVSHEDPEVQFNWYVDGVEVHNAKTKPREEQFNSTFRVVSVLTVVHQDWLNGKEYKCKVSNKGLPAPIEKTISKTKGQPREPQVYTLPPSREEMTKNQVSLTCLVKGFYPSDIAVEWESNGQPENNYKTTPPMLDSDGSFFLYSKLTVDKSRWQQGNVFSCSVMHEALHNHYTQKSLSLSPGKSSGGSCGRDHFRCRSYDKCVPAHWLCDGVLDCLDSSDETYCSAPASEPPGSLCPAYTEFLCKDSDRCFPSEWRCDGEMDCVDGSDELHCAYHTSLQ light: YVLTQPPSVSVAPGQTARITCGGNNIGSKSVHWYQQKPGQAPVLVVYDDSDRPSEIPERFSGSNSGNTATLTISRVEAGDEADYYCQVWDSSSDHVVFGGGTRLTVLGQPKAAPSVTLFPPSSEELQANKATLVCLISDFYPGAVTVAWKADSSPVKAGVETTTPSKQSNNKYAASSYLSLTPEQWKSHRSYSCQVTHEGSTVEKTVAPTECS |
| binds | P7652 (bispecific antibody, human IgG2, lambda, also called C140162) light: YVLTQPPSVSVAPGQTARITCGGNNIGSKSVHWYQQKPGQAPVLVVYDDSDRPSEIPERFSGSNSGNTATLTISRVEAGDEADYYCQVWDSSSDHVVFGGGTRLTVLGQPKAAPSVTLFPPSSEELQANKATLVCLISDFYPGAVTVAWKADSSPVKAGVETTTPSKQSNNKYAASSYLSLTPEQWKSHRSYSCQVTHEGSTVEKTVAPTECSSSGGSCPAYTEFLCADSDRCFPSEWRCDGEMDCVDGSDELHCAYHTCAPNQFRCNSYDKCVPAHWVCDGVLDCLDSSDETNCSAPASEPPGSLSLQ heavy: QVQLVESGGGVVQPGRSLRLSCAASGFTFSRYDMHWVRQAPGKGLEWVAIIFYDGSNKYYADPVKGRFTISRDNSKNTLYLQMNSLRAEDTAVYYCATLAAAFDYWGQGTLVTVSSASTKGPSVFPLAPCSRSTSESTAALGCLVKDYFPEPVTVSWNSGALTSGVHTFPAVLQSSGLYSLSSVVTVPSSNFGTQTYTCNVDHKPSNTKVDKTVERKCCVECPPCPAPPVAGPSVFLFPPKPKDTLMISRTPEVTCVVVDVSHEDPEVQFNWYVDGVEVHNAKTKPREEQFNSTFRVVSVLTVVHQDWLNGKEYKCKVSNKGLPAPIEKTISKTKGQPREPQVYTLPPSREEMTKNQVSLTCLVKGFYPSDIAVEWESNGQPENNYKTTPPMLDSDGSFFLYSKLTVDKSRWQQGNVFSCSVMHEALHNHYTQKSLSLSPGK |
